{
  "source": "patent US20240067944A1",
  "about": "(published 2024)",
  "binders": {"B1": {"name": "Cmpd #1 (monovalent anti-FX VHH polypeptide, VHH-1.1) (VHH)", "VHH": "EVQLVESGGGLVQPGGSLRLSCAASGSIGAFDAMGWYRQAPGKQRELVAGIMVSRGNTNYTDSVKGRFTISRDNAKNTVYLQMNSLKPEDTAVYYCKAVKRPGPGYLEVWGQGTLVTVSS", "notes": "No protractor"}},
  "assay_in_all_cases": "ELISA, biotinylated 12-mer peptide on streptavidin, 2 ug/mL FLAG-tagged VHH, anti-FLAG-HRP",
  "key": {"YDAADLDPTENP": {"biological_target": "T1, YDAADLDPTENP (human)", "T1 peptide": "YDAADLDPTENP-biotin", "description": "(§1) To determine whether the binding epitope of the anti-FX VHH polypeptide designated “cmpd #1” are located inside the activation peptide (AP) of human FX (SEQ ID NO:2), an ELISA assay was setup. 41 unique 12-mer peptide fragments spanning the 52 residues of the activation peptide with one amino acid spacing were immobilized in microtiter plate wells followed by incubation with the VHH polypeptide to be tested, and detection of bound ligand was performed by addition of a secondary HRP-labelled antibody.\n(§2) The peptides were C-terminally conjugated to biotin and 50 μL of 1 μg/mL peptide solution was used for immobilization in discrete wells of the microtiter plate which was pre-coated with 1 μg/mL streptavidin. Each well was washed with washing buffer (10 mM Tris, 150 mM NaCl, 2.5 mM CaCl₂), 0.05% Tween 20, pH 8.60) followed by addition of 50 μL of 2 μg/mL FLAG-tagged anti-FX VHH polypeptide or IgG antibody to be tested. After 1 hour non-bound VHH polypeptide was washed off using washing buffer.\n(§3) Bound anti-FX activation peptide ligand was detected by first binding a HRP-labelled secondary antibody (for FLAG-tagged VHH polypeptide: Anti-FLAG mAb M2-Peroxidase (HRP) (Sigma Aldrich, US) for 1 hour, and then adding 100 μL TMB-1 ELISA substrate (Kem-En-Tec Diagnostics, Denmark)."}, "WKPYDAADLDPT": {"biological_target": "T2, WKPYDAADLDPT (human)", "T2 peptide": "WKPYDAADLDPT-biotin", "description": "as §1, §2, §3"}, "PFDLLDFNQTQP": {"biological_target": "T3, PFDLLDFNQTQP (human)", "T3 peptide": "PFDLLDFNQTQP-biotin", "description": "as §1, §2, §3"}, "LDFNQTQPERGD": {"biological_target": "T4, LDFNQTQPERGD (human)", "T4 peptide": "LDFNQTQPERGD-biotin", "description": "as §1, §2, §3"}, "ITWKPYDAADLD": {"biological_target": "T5, ITWKPYDAADLD (human)", "T5 peptide": "ITWKPYDAADLD-biotin", "description": "as §1, §2, §3"}, "GEAPDSITWKPY": {"biological_target": "T6, GEAPDSITWKPY (human)", "T6 peptide": "GEAPDSITWKPY-biotin", "description": "as §1, §2, §3"}, "SITWKPYDAADL": {"biological_target": "T7, SITWKPYDAADL (human)", "T7 peptide": "SITWKPYDAADL-biotin", "description": "as §1, §2, §3"}, "AQATSSSGEAPD": {"biological_target": "T8, AQATSSSGEAPD (human)", "T8 peptide": "AQATSSSGEAPD-biotin", "description": "as §1, §2, §3"}, "DLLDFNQTQPER": {"biological_target": "T9, DLLDFNQTQPER (human)", "T9 peptide": "DLLDFNQTQPER-biotin", "description": "as §1, §2, §3"}, "TSSSGEAPDSIT": {"biological_target": "T10, TSSSGEAPDSIT (human)", "T10 peptide": "TSSSGEAPDSIT-biotin", "description": "as §1, §2, §3"}, "DAADLDPTENPF": {"biological_target": "T11, DAADLDPTENPF (human)", "T11 peptide": "DAADLDPTENPF-biotin", "description": "as §1, §2, §3"}, "EAPDSITWKPYD": {"biological_target": "T12, EAPDSITWKPYD (human)", "T12 peptide": "EAPDSITWKPYD-biotin", "description": "as §1, §2, §3"}, "QATSSSGEAPDS": {"biological_target": "T13, QATSSSGEAPDS (human)", "T13 peptide": "QATSSSGEAPDS-biotin", "description": "as §1, §2, §3"}, "APDSITWKPYDA": {"biological_target": "T14, APDSITWKPYDA (human)", "T14 peptide": "APDSITWKPYDA-biotin", "description": "as §1, §2, §3"}, "NQTQPERGDNNL": {"biological_target": "T15, NQTQPERGDNNL (human)", "T15 peptide": "NQTQPERGDNNL-biotin", "description": "as §1, §2, §3"}, "TQPERGDNNLTR": {"biological_target": "T16, TQPERGDNNLTR (human)", "T16 peptide": "TQPERGDNNLTR-biotin", "description": "as §1, §2, §3"}, "DFNQTQPERGDN": {"biological_target": "T17, DFNQTQPERGDN (human)", "T17 peptide": "DFNQTQPERGDN-biotin", "description": "as §1, §2, §3"}, "SVAQATSSSGEA": {"biological_target": "T18, SVAQATSSSGEA (human)", "T18 peptide": "SVAQATSSSGEA-biotin", "description": "as §1, §2, §3"}, "FDLLDFNQTQPE": {"biological_target": "T19, FDLLDFNQTQPE (human)", "T19 peptide": "FDLLDFNQTQPE-biotin", "description": "as §1, §2, §3"}, "SGEAPDSITWKP": {"biological_target": "T20, SGEAPDSITWKP (human)", "T20 peptide": "SGEAPDSITWKP-biotin", "description": "as §1, §2, §3"}, "ADLDPTENPFDL": {"biological_target": "T21, ADLDPTENPFDL (human)", "T21 peptide": "ADLDPTENPFDL-biotin", "description": "as §1, §2, §3"}, "ENPFDLLDFNQT": {"biological_target": "T22, ENPFDLLDFNQT (human)", "T22 peptide": "ENPFDLLDFNQT-biotin", "description": "as §1, §2, §3"}, "TWKPYDAADLDP": {"biological_target": "T23, TWKPYDAADLDP (human)", "T23 peptide": "TWKPYDAADLDP-biotin", "description": "as §1, §2, §3"}},
  "note": "No end group written: not given here.",
  "data": [
    {"binder": "B1", "values": [
      {"measurement": "ELISA signal normalized relative to the background signal", "setting": "YDAADLDPTENP", "value": "0.87 relative to background"},
      {"measurement": "ELISA signal normalized relative to the background signal", "setting": "WKPYDAADLDPT", "value": "0.89 relative to background"},
      {"measurement": "ELISA signal normalized relative to the background signal", "setting": "PFDLLDFNQTQP", "value": "4.95 relative to background"},
      {"measurement": "ELISA signal normalized relative to the background signal", "setting": "LDFNQTQPERGD", "value": "0.97 relative to background"},
      {"measurement": "ELISA signal normalized relative to the background signal", "setting": "ITWKPYDAADLD", "value": "1.1 relative to background"},
      {"measurement": "ELISA signal normalized relative to the background signal", "setting": "GEAPDSITWKPY", "value": "0.93 relative to background"},
      {"measurement": "ELISA signal normalized relative to the background signal", "setting": "SITWKPYDAADL", "value": "1.08 relative to background"},
      {"measurement": "ELISA signal normalized relative to the background signal", "setting": "AQATSSSGEAPD", "value": "0.97 relative to background"},
      {"measurement": "ELISA signal normalized relative to the background signal", "setting": "DLLDFNQTQPER", "value": "3.08 relative to background"},
      {"measurement": "ELISA signal normalized relative to the background signal", "setting": "TSSSGEAPDSIT", "value": "0.77 relative to background"},
      {"measurement": "ELISA signal normalized relative to the background signal", "setting": "DAADLDPTENPF", "value": "0.88 relative to background"},
      {"measurement": "ELISA signal normalized relative to the background signal", "setting": "EAPDSITWKPYD", "value": "0.97 relative to background"},
      {"measurement": "ELISA signal normalized relative to the background signal", "setting": "QATSSSGEAPDS", "value": "0.96 relative to background"},
      {"measurement": "ELISA signal normalized relative to the background signal", "setting": "APDSITWKPYDA", "value": "1.06 relative to background"},
      {"measurement": "ELISA signal normalized relative to the background signal", "setting": "NQTQPERGDNNL", "value": "0.92 relative to background"},
      {"measurement": "ELISA signal normalized relative to the background signal", "setting": "TQPERGDNNLTR", "value": "1.05 relative to background"},
      {"measurement": "ELISA signal normalized relative to the background signal", "setting": "DFNQTQPERGDN", "value": "0.94 relative to background"},
      {"measurement": "ELISA signal normalized relative to the background signal", "setting": "SVAQATSSSGEA", "value": "0.96 relative to background"},
      {"measurement": "ELISA signal normalized relative to the background signal", "setting": "FDLLDFNQTQPE", "value": "4.38 relative to background"},
      {"measurement": "ELISA signal normalized relative to the background signal", "setting": "SGEAPDSITWKP", "value": "0.88 relative to background"},
      {"measurement": "ELISA signal normalized relative to the background signal", "setting": "ADLDPTENPFDL", "value": "0.91 relative to background"},
      {"measurement": "ELISA signal normalized relative to the background signal", "setting": "ENPFDLLDFNQT", "value": "4 relative to background"},
      {"measurement": "ELISA signal normalized relative to the background signal", "setting": "TWKPYDAADLDP", "value": "1.13 relative to background"}
    ]}
  ]
}
